Data as given in US20240279335A1, “CD28 SHEDDING BLOCKING AGENTS” (BIOND BIOLOGICS LTD., priority 2021, published 2024).
Several values for one entry are separate records, joined by “and”; a condition that tells them apart may be missing. Equal values may be shown once. Read-outs that look alike come from different tables or passages of the source.

Experiments:
[1] = biological target: human CD28 on the cell surface (membranal CD28) (human) (UniProt P10747); assay: flow cytometry on human CD3 cells, 300 nM, anti-human IgG VHH Alexa Fluor 647
[2] = biological target: human CD28 on the cell surface (membranal CD28) (human) (UniProt P10747); assay: as above; remark: listed apart in the source
[3] = biological target: T1, soluble CD28 (sCD28) from SEB stimulated PBMC (Homo sapiens, UniProt P10747); format: cell-based
T1 construct: PBMCs were isolated from fresh blood samples of healthy donors; endogenous in cells; host or cells: human PBMCs from healthy donors, SEB-stimulated

isolated CD3 T cells = assay: T cell stimulation with HEK/CD80/scOKT3 artificial antigen presenting cells (aAPC-CD80), IL-2 secretion; format: cell-based, human; details: various concentrations, FIG. 13A-13F, 17A-17F
Description: (§1) Cytokines ELISA—Commercial ELISA kits were used for quantitation of the amount of human interferon-gamma (Biolegend, Cat. No. 430103), human interleukin 2 (Biolegend, Cat. No. 431802) and human CD28 (R&D system, Cat. No. DY342). Cell Proliferation and viability (MTT assay) was conducted to assure validity of results and performed according to manufacturer instructions (Roche, Cat. No. 11465007001).
T cells stimulation with HEK/CD80/scOKT3 artificial antigen presenting cells (aAPC-CD80)—1×10^5 isolated CD3 T cells (from healthy donors) were stimulated with 0.5×10^4 mitomycin treated aAPC-CD80 (HEK293 cells stably transfected with CD80 and scOKT3-CD14 chimera plasmids) for 24-72 hr at 37° C. Treatments of VHH targeting CD28 or controls were added at the indicated concentration in soluble form. When stated, VHH #3C04 (raised against human HER2) was used as an “irrelevant control” and VHH #12B09 was used as a “positive control” for a nanobody with CD28 antagonist effect. Assays were conducted in complete RPMI-1640 media supplemented with 10% FCS and pen/strep mixture.

CD28-Fc = biological target: T2, CD28-Fc (Homo sapiens, UniProt P10747); assay: Biacore multi-cycle kinetics on immobilized CD28-Fc; format: binding; details: Table 3, monomeric VHH clones; for ka: affinity constants to CD28-Fc
T2 construct: Fc
Description: Biacore—Affinity clones derived from VHH #2A01 affinity maturation libraries was determined using CD28-Fc immobilized on a CM5 Series S sensor chip. Multi-cycle kinetics measurements were done using 5 step dilutions of the analytes (VHH clones) from 200 nM down to 12.5 nM. Kinetic parameters and affinity values were calculated using the 1:1 binding model in Biacore T 200 E valuation software 3.1 by introducing a double (blank channel and blank sample) subtraction.

[4] = biological target: T3, human CD28-Fc chimera (R&D, Cat. No. 342-CD) (human, UniProt P10747 19-152); assay: SPR (Biacore), CD28-Fc immobilized on CM5 chip, VHH as analyte, multi-cycle kinetics, 1:1 model
T3 construct: Bought reagent; also called recombinant human CD28-Fc fusion protein; recombinant CD28 fused to an Fc backbone; Fc part of the bought chimera not given

[5] = biological target: T3, human CD28-Fc chimera (R&D, Cat. No. …); assay: ELISA: serial dilution of the agent on recombinant human CD28-Fc fusion protein, OD read
[6] = system: isolated T cells mixed with mature dendritic cells; assay: Allogeneic mixed lymphocyte reaction (MLR), cytokine secretion; format: cell-based, human; details: monomeric affinity matured VHHs; especially at high concentrations; FIG. 2
Description: as §1
Dendritic cell differentiation—Monocytes were cultured at a density of 1×10^6/mL in RPMI medium with growth factors that was refreshed at day 3 and at day 6. […] When needed the iDCs were further differentiated into mature dendritic cells by addition of 100 ng/mL LPS (Sigma, Cat. No. L4391) and 20 ng/mL interferon-gamma (R&D systems, Cat. No. 285-IF) for 48 hrs. The generated cell populations were tested for the indicated phenotypes by FACS analysis of relevant markers and by analysis of secretion of characteristic cytokines.
Allogeneic Mixed Lymphocyte Reaction—0.1×10^6 T cells were mixed with […] dendritic cells from different donor for 24-96 hours at 37° C. with/without the indicated concentration of treatments. Assays were conducted in complete RPMI-1640 media supplemented with 10% FCS and pen/strep mixture. […]

Row | Molecule | kd (CD28-Fc; CD28-Fc) [s⁻¹] | ka (CD28-Fc) [M⁻¹ s⁻¹] | Kd [4] | koff [4] [s⁻¹] | kon [4] [M⁻¹ s⁻¹] | further results
1 | Isotype hIgG4 (antibody) | – | – | – | – | – | MFI [1]: 71.9 MFI; MFI [2]: 116 MFI
2 | CC#CCOc1ccc(S(=O)(=O)N2CCSC(C)(C)[C@@H]2C(=O)NO)cc1 [TMI, reference compound] | – | – | – | – | – | sCD28 levels / inhibition of sCD28 production [3]: greatly reduced sCD28 levels
3 | 2A1-Hinge: VHH 2A1 with human IgG1 hinge region downstream, dimeric, SEQ ID NO: 114 (protein, dimeric) EVQLVESGGGLVQAGESLRLSCAASGSIASINAMGWYRQAPGSQRELVAAISGGGDTYYADSVKGRFTISRDNAKTTVYLQMNSLRPEDTAVYYCVVDLYGSDYWDWGQGTQVTVSSDKTHTCPPCPAPEL | – | – | – | – | – | sCD28 levels / inhibition of sCD28 production [3]: did inhibit sCD28 production, but only at levels that were comparable to the 2A1 monomer; IL-2 secretion, antagonistic effect (isolated CD3 T cells): no effect on IL-2 secretion
4 | VHH 10E1 (VHH, also called 10E01) VHH: EVQLVESGGGLVQAGESLRLSCAASGSIASIKTMAWYRQAPGSQRELVAAINYIKEIYYADSVKGRFTISRDNAKTTVYLQMNSLRPEDTAVYYCVVDVTKEDYWYWGQGTQVTVSS | 2.84e-06 | 44400 | 0.0639 nM | 2.84e-06 | 44400 | –
5 | VHH 12A09: affinity matured variant of VHH 2A1, SEQ ID NO: 32 (protein) VHH: EVQLVESGGGLVQAGESLRLSCAASGSIASIKTMAWYRQAPGSQRELVTAIASDNRKYYADSVKGRFTISRDNAKTTVYLQMNSLRPEDTAVYYCVVDVTKEDYWYWGQGTQVTVSS | 3.43e-07 | 83400 | – | – | – | Kd (CD28-Fc; CD28-Fc): 0.0041 nM
6 | VHH 2A1 (VHH, Monomeric llama VHH; also called VHH #2A01; monomeric 2A1) VHH: EVQLVESGGGLVQAGESLRLSCAASGSIASINAMGWYRQAPGSQRELVAAISGGGDTYYADSVKGRFTISRDNAKTTVYLQMNSLRPEDTAVYYCVVDLYGSDYWDWGQGTQVTVSS | – | – | – | – | – | EC50 (read off the curve) [5]: ~40 nM
7 | VHH 6B10: affinity matured variant of VHH 2A1, SEQ ID NO: 28 (protein) VHH: EVQLVESGGGLVQAGESLRLSCAASGSIASINAMGWYRQAPGSQRELVAAISGGGDTYYADSVKGRFTISRDNAKTTVYLQMNSLRPEDTAVYYCVVDTHRGVYWYWGQGTQVTVSS | – | – | – | – | – | blocking of CD28 shedding compared to the parental VHH [3]: superior to the parental VHH; proinflammatory cytokine (IFN gamma) secretion in MLR, antagonistic effect [6]: robust antagonistic effect
8 | VHH 9B3 (VHH, also called 9B03) VHH: EVQLVESGGGLVQAGESLRLSCAASGSIASIRTMAWYRQAPGSQRELVAAISSGREVYYADSVKGRFTISRDNAKTTVYLQMNSLRPEDTAVYYCVVDMYWQDYWWWGQGTQVTVSS | 7.17e-08 | 112000 | 0.000642 nM | 7.17e-08 | 112000 | –
9 | VHH 9A7 (VHH, also called 9A07) VHH: EVQLVESGGGLVQAGESLRLSCAASGSIASINSMGWYRQAPGSQRELVAAISDRSEKYYADSVKGRFTISRDNAKTTVYLQMNSLRPEDTAVYYCVVDHHHSDWWTWGQGTQVTVSS | 9.78e-06 | 51500 | 0.19 nM | 9.78e-06 | 51500 | –
10 | VHH 11E11 (VHH) VHH: EVQLVESGGGLVQAGESLRLSCAASGSIASINSMAWYRQAPGSQRELVAAISNAREVYYADSVKGRFTISRDNAKTTVYLQMNSLRPEDTAVYYCVVDVYFQEYWYWGQGTQVTVSS | 1.64e-05 | 46600 | 0.352 nM | 1.64e-05 | 46600 | –
11 | VHH 5A3 (VHH, also called 5A03) VHH: EVQLVESGGGLVQAGESLRLSCAASGSIASINSMGWYRQAPGSQRELVAAINEKLLIYYADSVKGRFTISRDNAKTTVYLQMNSLRPEDTAVYYCVVDLYGSDYWDWGQGTQVTVSS | 3.78e-05 | 33800 | 1.12 nM | 3.78e-05 | 33800 | blocking of CD28 shedding compared to the parental VHH [3]: superior to the parental VHH; proinflammatory cytokine (IFN gamma) secretion in MLR, antagonistic effect [6]: robust antagonistic effect
12 | VHH 11G11 (VHH) VHH: EVQLVESGGGLVQAGESLRLSCAASGSIASINTMAWYRQAPGSQRELVAAINSISRTYYADSVKGRFTISRDNAKTTVYLQMNSLRPEDTAVYYCVVDVTKEDYWYWGQGTQVTVSS | 5.77e-06 | 47800 | 0.12 nM and 0.121 nM | 5.77e-06 | 47800 | –
